Data reported in IntAct's records for PubMed 19596235.

B1: Structure-specific endonuclease subunit SLX4 (Homo sapiens), Q8IY92 (parent)
chain: MKLSVNEAQLGFYLGSLSHLSACPGIDPRSSEDQPESLKTGQMMDESDEDFKELCASFFQRVKKHGIKEVSGERKTQKAASNGTQIRSKLKRTKQTATKTKTLQGPAEKKPPSGSQAPRTKKQRVTKWQASEPAHSVNGEGGVLASAPDPPVLRETAQNTQTGNQQEPSPNLSREKTRENVPNSDSQPPPSCLTTAVPSPSKPRTAQLVLQRMQQFKRADPERLRHASEECSLEAAREENVPKDPQEEMMAGNVYGLGPPAPESDAAVALTLQQEFARVGASAHDDSLEEKGLFFCQICQKNLSAMNVTRREQHVNRCLDEAEKTLRPSVPQIPECPICGKPFLTLKSRTSHLKQCAVKMEVGPQLLLQAVRLQTAQPEGSSSPPMFSFSDHSRGLKRRGPTSKKEPRKRRKVDEAPSEDLLVAMALSRSEMEPGAAVPALRLESAFSERIRPEAENKSRKKKPPVSPPLLLVQDSETTGRQIEDRVALLLSEEVELSSTPPLPASRILKEGWERAGQCPPPPERKQSFLWEGSALTGAWAMEDFYTARLVPPLVPQRPAQGLMQEPVPPLVPPEHSELSERRSPALHGTPTAGCGSRGPSPSASQREHQALQDLVDLAREGLSASPWPGSGGLAGSEGTAGLDVVPGGLPLTGFVVPSQDKHPDRGGRTLLSLGLLVADFGAMVNNPHLSDVQFQTDSGEVLYAHKFVLYARCPLLIQYVNNEGFSAVEDGVLTQRVLLGDVSTEAARTFLHYLYTADTGLPPGLSSELSSLAHRFGVSELVHLCEQVPIATDSEGKPWEEKEAENCESRAENFQELLRSMWADEEEEAETLLKSKDHEEDQENVNEAEMEEIYEFAATQRKLLQEERAAGAGEDADWLEGGSPVSGQLLAGVQVQKQWDKVEEMEPLEPGRDEAATTWEKMGQCALPPPQGQHSGARGAEAPEQEAPEEALGHSSCSSPSRDCQAERKEGSLPHSDDAGDYEQLFSSTQGEISEPSQITSEPEEQSGAVRERGLEVSHRLAPWQASPPHPCRFLLGPPQGGSPRGSHHTSGSSLSTPRSRGGTSQVGSPTLLSPAVPSKQKRDRSILTLSKEPGHQKGKERRSVLECRNKGVLMFPEKSPSIDLTQSNPDHSSSRSQKSSSKLNEEDEVILLLDSDEELELEQTKMKSISSDPLEEKKALEISPRSCELFSIIDVDADQEPSQSPPRSEAVLQQEDEGALPENRGSLGRRGAPWLFCDRESSPSEASTTDTSWLVPATPLASRSRDCSSQTQISSLRSGLAVQAVTQHTPRASVGNREGNEVAQKFSVIRPQTPPPQTPSSCLTPVSPGTSDGRRQGHRSPSRPHPGGHPHSSPLAPHPISGDRAHFSRRFLKHSPPGPSFLNQTPAGEVVEVGDSDDEQEVASHQANRSPPLDSDPPIPIDDCCWHMEPLSPIPIDHWNLERTGPLSTSSPSRRMNEAADSRDCRSPGLLDTTPIRGSCTTQRKLQEKSSGAGSLGNSRPSFLNSALWDVWDGEEQRPPETPPPAQMPSAGGAQKPEGLETPKGANRKKNLPPKVPITPMPQYSIMETPVLKKELDRFGVRPLPKRQMVLKLKEIFQYTHQTLDSDSEDESQSSQPLLQAPHCQTLASQTYKPSRAGVHAQQEATTGPGAHRPKGPAKTKGPRHQRKHHESITPPSRSPTKEAPPGLNDDAQIPASQESVATSVDGSDSSLSSQSSSSCEFGAAFESAGEEEGEGEVSASQAAVQAADTDEALRCYIRSKPALYQKVLLYQPFELRELQAELRQNGLRVSSRRLLDFLDTHCITFTTAATRREKLQGRRRQPRGKKKVERN

Variants of: B1
Conditions: with plk1_human PLK1, P53350
Chain of plk1_human PLK1, P53350 (P53350 whole entry): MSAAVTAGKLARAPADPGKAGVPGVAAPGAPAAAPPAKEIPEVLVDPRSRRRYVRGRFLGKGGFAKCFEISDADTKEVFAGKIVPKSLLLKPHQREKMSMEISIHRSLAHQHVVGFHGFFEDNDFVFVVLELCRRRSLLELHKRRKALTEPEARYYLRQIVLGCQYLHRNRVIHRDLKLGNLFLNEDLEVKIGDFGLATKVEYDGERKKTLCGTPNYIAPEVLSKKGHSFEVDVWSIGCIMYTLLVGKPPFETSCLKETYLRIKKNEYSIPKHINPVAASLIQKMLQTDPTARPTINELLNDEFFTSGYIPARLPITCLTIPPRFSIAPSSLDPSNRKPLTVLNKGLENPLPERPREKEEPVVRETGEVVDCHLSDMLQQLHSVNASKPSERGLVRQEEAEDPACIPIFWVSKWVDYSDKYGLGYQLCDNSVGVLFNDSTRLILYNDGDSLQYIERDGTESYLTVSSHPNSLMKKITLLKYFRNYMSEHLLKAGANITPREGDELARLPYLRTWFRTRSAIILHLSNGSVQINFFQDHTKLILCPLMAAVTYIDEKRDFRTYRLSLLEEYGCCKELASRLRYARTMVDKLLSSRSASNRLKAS

Q: S1453A was tested. Which “effect of a mutation on the interaction” value did it give?
A: The value was “decreasing interaction”.
